B1: Pistol ribozyme (parent)
chain: GGGUCGUUGUUCCAUAAUCGCGUGGAUAUGGCACGCAAGUUUCUACCGGGCACCGUAAAUGUCCGACUGGAGCCGUUCGGGCGGCUAUAAACAGACCUCAGGCCCGAAGCGUGGCGGCACCUGCCGCCGGUGGUAAAAAAGAUCGGAAGAGCACACGUCU

Variants of: B1
Assay: aptazyme ON/OFF ratio, guanine; higher = stronger switching; co-transcriptional cleavage with and without guanine

Row | Variant | aptazyme ON/OFF ratio
1 | U7A U8A G9U U10G U11A C12A C13G | 1.09
2 | U7A U8A G9U U10G U11A C12A C13A | 1.19
3 | U7A U8A G9U U10G U11A C12A C13U | 1.16
4 | U7A U8A U10A U11C C12U | 1.03
5 | U7A U8A U10A U11C C12G | 1.1
6 | U7A U8A U10A U11C C12A | 1.04
7 | U7A U8A U10C C12G C13G | 1.19
8 | U7A U8A U10C C12G C13A | 1.17
9 | U7A U8A U10C C12G C13U | 1.26
10 | U7A U8A G9U U10C U11G | 1.33
11 | U7A U8A G9U U10C U11A | 1.29
12 | U7A U8A G9U U10C U11C | 1.04
13 | U7A U8A G9U U10G C12U C13G | 1.26
14 | U7A U8A G9U U10G C12U C13A | 1.17
15 | U7A U8A G9U U10G C12U C13U | 1.51
16 | U7A U8A U10A C12G C13U | 1.23
17 | U7A U8A U10A C12G C13G | 1.17
18 | U7A U8A U10A C12G C13A | 1.14
19 | U7A U8A U10C U11A | 1.2
20 | U7A U8A U10C U11G | 1.2
21 | U7A U8A U10C U11C | 1.04
22 | U7A U8A G9U U10G U11G C12G C13U | 1.22
23 | U7A U8A G9U U10G U11G C12G C13A | 1.21
24 | U7A U8A G9U U10G U11G C12G C13G | 1.16

Row | Variant | aptazyme ON/OFF ratio
25 | U7A U8A G9U U10G U11G C12A C13A | 1.24
26 | U7A U8A G9U U10G U11G C12A C13U | 1.17
27 | U7A U8A G9U U10G U11G C12A C13G | 1.2
28 | U7A U8A G9U U10C U11A C12A C13U | 1.23
29 | U7A U8A G9U U10C U11A C12A C13G | 1.14
30 | U7A U8A G9U U10C U11A C12A C13A | 1.2
31 | U7A U8A U10C U11A C12U C13G | 1.1
32 | U7A U8A U10C U11A C12U C13A | 1.16
33 | U7A U8A U10C U11A C12U C13U | 1.11
34 | U7A U8A U10C U11C C13A | 1.01
35 | U7A U8A U10C U11C C13U | 1.02
36 | U7A U8A U10C U11C C13G | 1.07
37 | U7A U8A G9U U10C C12A C13A | 1.11
38 | U7A U8A G9U U10C C12A C13U | 1.16
39 | U7A U8A G9U U10C C12A C13G | 1.15
40 | U7A U8A G9U U10C C12G C13G | 1.35
41 | U7A U8A G9U U10C C12G C13A | 1.31
42 | U7A U8A G9U U10C C12G C13U | 1.4
43 | U7A U8A G9U U10C U11A C12G C13G | 1.17
44 | U7A U8A G9U U10C U11A C12G C13U | 1.16
45 | U7A U8A G9U U10C U11A C12G C13A | 1.25
46 | U7A U8A U10A U11G C12A | 1.09
47 | U7A U8A U10A U11G C12G | 0.984
48 | U7A U8A U10A U11G C12U | 1.17

Row | Variant | aptazyme ON/OFF ratio
49 | U7A U8A U10C U11A C12A | 1.24
50 | U7A U8A U10C U11A C12G | 1.19
51 | U7A U8A U10C U11A C12U | 1.14
52 | U7A U8A G9U U11C C13G | 1.05
53 | U7A U8A G9U U11C C13A | 1.11
54 | U7A U8A G9U U11C C13U | 1.04
55 | U7A U8A U10C U11C C12G | 1.2
56 | U7A U8A U10C U11C C12U | 1.07
57 | U7A U8A U10C U11C C12A | 1.17
58 | U7A U8A G9U U11A C12U C13G | 1.23
59 | U7A U8A G9U U11A C12U C13A | 1.04
60 | U7A U8A G9U U11A C12U C13U | 1.28
61 | U7A U8A U10A U11C C13A | 1.04
62 | U7A U8A U10A U11C C13G | 1.06
63 | U7A U8A U10A U11C C13U | 0.989
64 | U7A U8A G9U U11A C12G C13A | 0.953
65 | U7A U8A G9U U11A C12G C13U | 1.14
66 | U7A U8A G9U U11A C12G C13G | 1.16
67 | U7A U8A G9U U11A C13G | 1.06
68 | U7A U8A G9U U11A C13A | 1.19
69 | U7A U8A G9U U11A C13U | 1.26
70 | U7A U8A U10C C12U C13U | 1.14
71 | U7A U8A U10C C12U C13A | 1.05
72 | U7A U8A U10C C12U C13G | 1.07

Row | Variant | aptazyme ON/OFF ratio
73 | U7A U8A G9U U10G C12A | 1.22
74 | U7A U8A G9U U10G C12G | 1.16
75 | U7A U8A G9U U10G C12U | 1.33
76 | U7A U8A G9U U10G U11A C12U C13U | 1.13
77 | U7A U8A G9U U10G U11A C12U C13G | 1.15
78 | U7A U8A G9U U10G U11A C12U C13A | 1.14
79 | U7A U8A G9U U11G C12G | 1.19
80 | U7A U8A G9U U11G C12U | 1.31
81 | U7A U8A G9U U11G C12A | 1.1
82 | U7A U8A U10C U11C C12U C13U | 1.05
83 | U7A U8A U10C U11C C12U C13A | 1.04
84 | U7A U8A U10C U11C C12U C13G | 1.15
85 | U7A U8A G9U U10C U11A C12U C13G | 1.18
86 | U7A U8A G9U U10C U11A C12U C13A | 1.14
87 | U7A U8A G9U U10C U11A C12U C13U | 1.22
88 | U7A U8A U10A U11G C12A C13A | 1.19
89 | U7A U8A U10A U11G C12A C13U | 1.18
90 | U7A U8A U10A U11G C12A C13G | 1.07
91 | U7A U8A G9U U10C U11A C13A | 1.22
92 | U7A U8A G9U U10C U11A C13U | 1.08
93 | U7A U8A G9U U10C U11A C13G | 1.17
94 | U7A U8A G9U U10C U11C C12U C13A | 1.02
95 | U7A U8A G9U U10C U11C C12U C13G | 1.02
96 | U7A U8A G9U U10C U11C C12U C13U | 1.08

Row | Variant | aptazyme ON/OFF ratio
97 | U7A U8A G9U U10G C12G C13U | 1.23
98 | U7A U8A G9U U10G C12G C13G | 1.08
99 | U7A U8A G9U U10G C12G C13A | 1.21
100 | U7A U8A U10G U11A C12A C13A | 1.64
101 | U7A U8A U10G U11A C12A C13G | 1.1
102 | U7A U8A U10G U11A C12A C13U | 1.7
103 | U7A U8A G9U U11C C12A C13A | 1.12
104 | U7A U8A G9U U11C C12A C13G | 1.13
105 | U7A U8A G9U U11C C12A C13U | 1.17
106 | U7A U8A G9U U10G U11C C13A | 1.06
107 | U7A U8A G9U U10G U11C C13U | 1.02
108 | U7A U8A G9U U10G U11C C13G | 1.09
109 | U7A U8A U10C U11A C13U | 1.05
110 | U7A U8A U10C U11A C13G | 1.09
111 | U7A U8A U10C U11A C13A | 1.13
112 | U7A U8A G9U U10G U11G C12A | 1.13
113 | U7A U8A G9U U10G U11G C12U | 1.37
114 | U7A U8A G9U U10G U11G C12G | 1.41
115 | U7A U8A U10A U11G C13U | 1.26
116 | U7A U8A U10A U11G C13G | 1.28
117 | U7A U8A U10A U11G C13A | 1.16
118 | U7A U8A U10G C12U | 1.35
119 | U7A U8A U10G C12G | 1.43
120 | U7A U8A U10G C12A | 1.33

Row | Variant | aptazyme ON/OFF ratio
121 | U7A U8A G9U U10G U11A C13U | 1.1
122 | U7A U8A G9U U10G U11A C13G | 1.04
123 | U7A U8A G9U U10G U11A C13A | 1.02
124 | U7A U8A U10G U11A C12G C13A | 1.2
125 | U7A U8A U10A C13U | 1.06
126 | U7A U8A U10A C13G | 1.06
127 | U7A U8A U10A C13A | 1.11
128 | U7A U8A G9U U10C C12A | 1.17
129 | U7A U8A G9U U10C C12U | 1.24
130 | U7A U8A G9U U10C C12G | 1.43
131 | U7A U8A U10A C12G | 1.26
132 | U7A U8A U10A C12A | 1.33
133 | U7A U8A U10A C12U | 1.11
134 | U7A U8A U10C U11C C12A C13U | 1.12
135 | U7A U8A U10C U11C C12A C13A | 1.06
136 | U7A U8A U10C U11C C12A C13G | 1.09
137 | U7A U8A G9U U10C U11G C12A C13U | 1.18
138 | U7A U8A G9U U10C U11G C12A C13A | 1.14
139 | U7A U8A G9U U10C U11G C12A C13G | 1.11
140 | U7A U8A G9U U11A C12A C13A | 1.04
141 | U7A U8A G9U U11A C12A C13G | 1.12
142 | U7A U8A G9U U11A C12A C13U | 1.22
143 | U7A U8A G9U U10G U11G C12U C13U | 1.22
144 | U7A U8A G9U U10G U11G C12U C13G | 1.24

Row | Variant | aptazyme ON/OFF ratio
145 | U7A U8A G9U U10G U11G C12U C13A | 1.47
146 | U7A U8A U10G U11A | 1.03
147 | U7A U8A U10G U11A C12G | 1.34
148 | U7A U8A U10G U11A C12A | 1.4
149 | U7A U8A U10G C12G C13U | 1.28
150 | U7A U8A U10G C12G C13A | 1.17
151 | U7A U8A U10G C12G C13G | 0.977
152 | U7A U8A G9U U10C U11G C13A | 1.1
153 | U7A U8A G9U U10C U11G C13U | 1.14
154 | U7A U8A G9U U10C U11G C13G | 1.17
155 | U7A U8A U10A U11C | 0.996
156 | U7A U8A U10A U11G | 1.17
157 | U7A U8A U10A U11A | 1.18
158 | U7A U8A G9U U11G C12A C13A | 1.29
159 | U7A U8A G9U U11G C12A C13G | 1.27
160 | U7A U8A G9U U11G C12A C13U | 1.22
161 | U7A U8A G9U U10A U11G C12U | 1.46
162 | U7A U8A U10C U11G C12U C13U | 1.3
163 | U7A U8A U10C U11G C12U C13G | 1.1
164 | U7A U8A U10C U11G C12U C13A | 1.23
165 | U7A U8A G9U U10C U11G C12G C13G | 1.21
166 | U7A U8A G9U U10C U11G C12G C13U | 1.12
167 | U7A U8A G9U U10C U11G C12G C13A | 1.15

Reference: the RNAGym collection of RNA variant scans (doi:10.1021/acssynbio.7b00057)
